Data from patent US20170174733A1 (Genentech, published 2017).
Substitutions are numbered along the chain they refer to. Names may count otherwise.

Assays:
[1] = biological target: T1, LRP6 E1E2 with a C-terminal Avi-tag and His6-tag (human, UniProt O75581 20-630, biotinylated (Avi-tag) where loaded on streptavidin tips; unlabeled where in solution); assay: BLI (OctetRED384): Strep-tagged variant captured by StrepMAB-Immo on AMC tips, LRP6-E1E2 in solution
T1 construct: domain: E1E2; also called LRP6 receptor fragment E1E2; biotinylated LRP6-E1E2; not shown: C-terminal Avi-tag and His6-tag
T1 sequence: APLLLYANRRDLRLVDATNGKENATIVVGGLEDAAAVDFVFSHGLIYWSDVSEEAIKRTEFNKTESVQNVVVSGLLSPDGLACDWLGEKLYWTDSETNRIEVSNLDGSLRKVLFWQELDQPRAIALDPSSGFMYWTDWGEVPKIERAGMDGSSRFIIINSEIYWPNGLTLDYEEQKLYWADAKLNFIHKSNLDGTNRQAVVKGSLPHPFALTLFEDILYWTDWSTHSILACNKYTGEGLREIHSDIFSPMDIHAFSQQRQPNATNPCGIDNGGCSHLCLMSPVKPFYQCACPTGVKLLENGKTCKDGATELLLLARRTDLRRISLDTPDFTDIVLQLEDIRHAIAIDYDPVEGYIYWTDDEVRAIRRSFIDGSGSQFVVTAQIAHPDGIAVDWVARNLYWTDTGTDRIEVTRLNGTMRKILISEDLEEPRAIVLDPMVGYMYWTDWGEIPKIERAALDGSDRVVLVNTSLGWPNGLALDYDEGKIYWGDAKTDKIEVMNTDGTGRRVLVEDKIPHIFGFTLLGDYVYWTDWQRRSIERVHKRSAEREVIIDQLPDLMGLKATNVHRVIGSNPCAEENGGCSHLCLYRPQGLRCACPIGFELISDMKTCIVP

papain = biological target: T2, papain (UniProt P00784 134-345); assay: phage ELISA on coated papain, 2-fold phage dilutions, anti-M13-HRP detection, OD 450 nm
T2 construct: Coated on ELISA plates
T2 sequence: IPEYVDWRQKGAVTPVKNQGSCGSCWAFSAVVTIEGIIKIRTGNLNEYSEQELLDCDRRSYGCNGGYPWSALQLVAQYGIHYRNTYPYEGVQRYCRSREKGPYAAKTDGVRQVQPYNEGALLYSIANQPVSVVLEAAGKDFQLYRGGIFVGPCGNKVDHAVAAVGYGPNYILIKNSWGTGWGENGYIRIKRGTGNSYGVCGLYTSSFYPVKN

BSA = BSA (UniProt P02769 25-607); assay: phage ELISA on BSA as control, 2-fold phage dilutions, anti-M13-HRP detection, OD 450 nm
[2] = biological target: anti-gD antibody (Genentech, Inc.); assay: phage ELISA on coated anti-gD antibody, 2-fold phage dilutions, anti-M13-HRP detection, OD 450 nm
human VEGF [3] = biological target: T3, human VEGF (human, UniProt P15692 27-191); assay: cell-based or functional assay
VEGF109 [4] = biological target: T4, VEGF109 (UniProt P15692 214-315, biotinylated where loaded on streptavidin tips); assay: phage ELISA, 5 ug/ml VEGF coated on 384-well Maxisorp, OD 450 nm
T4 construct: range 8-109; also called VEGF8-109; biotinylated VEGF109
T4 sequence: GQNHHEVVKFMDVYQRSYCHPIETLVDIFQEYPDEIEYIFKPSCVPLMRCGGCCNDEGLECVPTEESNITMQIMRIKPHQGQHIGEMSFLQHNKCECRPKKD

human VEGF [5] = biological target: T3, human VEGF; assay: cell-based or functional assay; remark: listed apart in the source
VEGF109 [6] = biological target: T4, VEGF109; assay: phage spot ELISA on VEGF with the phage-displayed clone 37, as told by the legend and paragraph 367; the sheet draws sequences only, no signals
[7] = biological target: T1, LRP6 E1E2 with a C-terminal Avi-tag and …; assay: biolayer interferometry (OctetRED384), fitting view of five traces, LRP6-E1E2
Description: (§1) Binding affinities of chagasin variants for the targets LRP6 and VEGF109 were measured using the OctetRED384 (ForteBio). All washes, dilutions and measurements were performed in PBS-based kinetics buffer (ForteBio) with the plate shaking at 1000 rpm. Streptavidin biosensors (SA tips, ForteBio) were equilibrated in kinetics buffer for 5 min and then loaded with either biotinylated LRP6-E1E2 or biotinylated VEGF109 (20 μg/ml) to a density of 2 nm signal difference, followed by a 3 min washing step. […] Dissociation of the chagasin variant-target complex was measured in wells containing kinetics buffer alone for up to 30 min. Sensorgrams with ligand-loaded SA tips going through wells containing only buffer in both association and dissociation measurement were used as reference for background subtraction. Kd, kₐ and kd were determined using the Octet evaluation software v7.0.1.3. using a 1:1 binding model with global fitting. Alternatively, AMC-biosensors (Fortebio) were loaded with StrepMAB-Immo (IBA GmbH) to saturation and subsequently used to capture Strep-tag II containing chagasin variants to saturation. After 5 min of washing in kinetics buffer, binding kinetics to unlabeled LRP6-E1E2 fragment was determined essentially as described above.

[8] = biological target: T1, LRP6 E1E2 with a C-terminal Avi-tag and …; assay: BLI (OctetRED384), monomeric variant
LRP6 on HEK293S cells = LRP6 on HEK293S cells (human, UniProt O75581 20-1613); assay: cell-based or functional assay
VEGF109 [9] = biological target: T4, VEGF109; assay: BLI (Octet) on VEGF109
Description: as §1

T3 sequence (P15692 other isoform, or with tags, fused parts or gaps limits assumed): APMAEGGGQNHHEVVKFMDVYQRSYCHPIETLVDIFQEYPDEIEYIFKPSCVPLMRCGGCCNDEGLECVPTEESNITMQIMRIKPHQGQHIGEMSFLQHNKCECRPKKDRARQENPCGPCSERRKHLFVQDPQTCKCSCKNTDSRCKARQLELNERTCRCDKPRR
BSA, sequence (P02769 25-607 limits assumed): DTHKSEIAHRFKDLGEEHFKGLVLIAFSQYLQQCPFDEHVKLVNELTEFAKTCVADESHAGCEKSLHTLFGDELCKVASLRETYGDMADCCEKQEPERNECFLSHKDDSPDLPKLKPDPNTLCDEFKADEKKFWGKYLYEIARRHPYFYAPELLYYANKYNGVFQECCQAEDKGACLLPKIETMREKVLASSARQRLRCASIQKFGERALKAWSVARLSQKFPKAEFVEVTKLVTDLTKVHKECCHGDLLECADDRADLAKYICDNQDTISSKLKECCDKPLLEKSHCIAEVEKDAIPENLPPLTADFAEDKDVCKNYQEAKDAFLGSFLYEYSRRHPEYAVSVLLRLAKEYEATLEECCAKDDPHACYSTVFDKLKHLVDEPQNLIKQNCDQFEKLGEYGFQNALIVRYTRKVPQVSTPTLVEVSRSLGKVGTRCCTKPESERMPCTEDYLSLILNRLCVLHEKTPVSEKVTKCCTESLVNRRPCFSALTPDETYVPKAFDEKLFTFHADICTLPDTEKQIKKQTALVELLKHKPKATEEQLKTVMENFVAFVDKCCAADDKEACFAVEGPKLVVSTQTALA

B1: chagasin LRP6 variant P (designed binder)
chain: MSHKVTKAHNGATLTVAVGELVEIQLPSNPSCGFAWYFEGGTKESPNESMFTVENKYFPDSNEIWYCGAGGTEHFHVTVKAAGTHAVNLTYMSPYYGPTKVEERFTVYLKANSAWSHPQFEK
[1]
  Kd: 150 nM

B2: phage-displayed gD-tagged wild-type chagasin fused to phage coat protein p3 (other)
chain: MADPNRFRGKDLGSLEMSHKVTKAHNGATLTVAVGELVEIQLPSNPTTGFAWYFEGGTKESPNESMFTVENKYFPPDSKLLGAGGTEHFHVTVKAAGTHAVNLTYMRPWTGPSHDSERFTVYLKANGGSGGSGGS
notes: also called chagasin wild-type (wt); p3-fusion display; not shown: phage coat protein g3 (p3)
papain
  EC50 (read off the curve): ~0.04 OD 268 nM
BSA
  binding result: no binding (tested: 0.5 OD 268 nm)
[2]
  EC50 (read off the curve): ~0.01 OD 268 nM

B3: phage-displayed gD-tagged wild-type chagasin fused to phage coat protein p8 (other)
chain: B2 chain
notes: also called chagasin wild-type (wt); p8-fusion display; not shown: phage coat protein g8 (p8)
papain
  EC50 (read off the curve): ~0.04 OD 268 nM
BSA
  binding result: no binding (tested: 0.5 OD 268 nm)
[2]
  EC50 (read off the curve): ~0.02 OD 268 nM

B4: chagasin LRP6 variant H (designed binder)
chain: MSHKVTKAHNGATLTVAVGELVEIQLPSNPTTGFAWYFEGGTKESPNESMFTVENKYFPYNNIRGLPGFGAGGTEHFHVTVKAAGTHAVNLTYMRPWTGPSHDSERFTVYLKANSAWSHPQFEK
[1]
  Kd: 6 nM

B5: chagasin VEGF variant L4X6-3 (designed binder)
chain: MSHKVTKAHNGATLTVAVGELVEIQLPSNYFNDGFAWYFEGGTKESPNESMFTVENKYFPGSSYWGGAGGTEHFHVTVKAAGTHAVNLTYMAPWAGPSRVLERFTVYLKAN
Human VEGF [3]
  Inhibitory Activity (IC50, nM) against hVEGF in cell-based assays: 710 nM

B6: phage-displayed chagasin VEGF variant 5-44-D8 (designed binder)
chain: MADPNRFRGKDLGSLEMSHKVTKAHNGATLTVAVGELVEIQLPSNLRSMGFAWYFEGGTKESPNESMFTVENKYFPAGPSAVPLGAGGTEHFHVTVKAAGTHAVNLTYMAPWRGPANVIERFTVYLKANGGSGGSGGS
notes: not shown: phage coat protein g3 (p3)
VEGF109 [4]
  EC50 (read off the curve): ~0.003 OD 268 nM

B7: chagasin VEGF variant E4B-5 (designed binder)
chain: MSHKVTKAHNGATLTVAVGELVEIQLPSNYFYEGFAWYFEGGTKESPNESMFTVENKYFPNGPGLGVYGAGGTEHFHVTVKAAGTHAVNLTYMAPWQGPSRELERFTVYLKAN
Human VEGF [3]
  Inhibitory Activity (IC50, nM) against hVEGF in cell-based assays: 800 nM

B8: chagasin VEGF variant E4B-7 (designed binder)
chain: B7 chain with F31Y, E33D, G62V, P63N, L65S, G66H, V67A, Y68W, Q97S, E102F
Human VEGF [3]
  Inhibitory Activity (IC50, nM) against hVEGF in cell-based assays: 550 nM

B9: chagasin VEGF variant L4X8-9 (designed binder)
chain: B7 chain with E33D, N61S, P63S, G64Y, L65M, G66S, V67Y, Y68S, Q97L, E102D
Human VEGF [3]
  Inhibitory Activity (IC50, nM) against hVEGF in cell-based assays: 300 nM
Human VEGF [5]
  IC50, inhibition of VEGF-dependent signaling through the KDR receptor on cells: 301 nM
  fold improvement of IC50 over the parental chagasin variant 4: 2 fold

B10: dimeric chagasin VEGF variant 37 (designed binder)
chain: B7 chain with Y32C, E33D, G62Y, L65S, Y68L, Q97F, E102V
notes: also called clone 37
VEGF109 [6]
  binding result: binds

B11: chagasin VEGF variant E4B-10 (designed binder)
chain: B7 chain with E33D, N61D, G62D, L65S, V67L, Y68W, Q97S, E102Y
Human VEGF [3]
  Inhibitory Activity (IC50, nM) against hVEGF in cell-based assays: 610 nM

B12: phage-displayed chagasin VEGF variant 1-90-H6 (designed binder)
chain: MADPNRFRGKDLGSLEMSHKVTKAHNGATLTVAVGELVEIQLPSNLQDSGFAWYFEGGTKESPNESMFTVENKYFPSGTTGKSNGAGGTEHFHVTVKAAGTHAVNLTYMFKSRGLMVPLERFTVYLKANGGSGGSGGS
notes: as for B6
VEGF109 [4]
  EC50 (read off the curve): ~0.006 OD 268 nM

B13: chagasin LRP6 variant S (designed binder)
chain: MSHKVTKAHNGATLTVAVGELVEIQLPSNPADGFAWYFEGGTKESPNESMFTVENKYFPSNYTKHGAGGTEHFHVTVKAAGTHAVNLTYMPREKGSSLVMERFTVYLKANSAWSHPQFEK
[1]
  Kd: 70 nM

B14: phage-displayed chagasin VEGF variant 3-65-F5 (designed binder)
chain: MADPNRFRGKDLGSLEMSHKVTKAHNGATLTVAVGELVEIQLPSNYRDSGFAWYFEGGTKESPNESMFTVENKYFPVRAGQANEGAGGTEHFHVTVKAAGTHAVNLTYMSPVLGPRFWLERFTVYLKANGGSGGSGGS
notes: as for B6
VEGF109 [4]
  EC50 (read off the curve): ~0.004 OD 268 nM

B15: chagasin LRP6 variant H2 (designed binder)
chain: MSHKVTKAHNGATLTVAVGELVEIQLPSNPQTGFAWYFEGGTKESPNESMFTVENKYFPSNKVKGVPGFGAGGTEHFHVTVKAAGTHAVNLTYMGPWTGASQEPERFTVYLKAN
notes: also called clone H2
[7]
  Kd: 0.39 nM
[8]
  Kd: 0.4 nM
LRP6 on HEK293S cells
  IC50, inhibition of Wnt1 signaling (luciferase reporter, HEK293S cells transfected by WNT1): 31 nM

B16: chagasin LRP6 variant H15 (designed binder)
chain: B15 chain with Q31T, V63I, V66I, G95R, W97S, A100P, Q102D, E103D, P104S
notes: also called clone H15
[8]
  Kd: 0.25 nM
LRP6 on HEK293S cells
  IC50, inhibition of Wnt1 signaling (luciferase reporter, HEK293S cells transfected by WNT1): 26 nM

B17: phage-displayed chagasin VEGF variant 4-66-F6 (designed binder)
chain: MADPNRFRGKDLGSLEMSHKVTKAHNGATLTVAVGELVEIQLPSNYFYDGFAWYFEGGTKESPNESMFTVENKYFPNDPGSRLSGAGGTEHFHVTVKAAGTHAVNLTYMAPWLGPSRVLERFTVYLKANGGSGGSGGS
notes: as for B6
VEGF109 [4]
  EC50 (read off the curve): ~0.007 OD 268 nM

B18: chagasin LRP6 variant S11 (designed binder)
chain: MSHKVTKAHNGATLTVAVGELVEIQLPSNVDGFAWYFEGGTKESPNESMFTVENKYFPSNSTKRGAGGTEHFHVTVKAAGTHAVNLTYMPRVKGAYLVMERFTVYLKAN
notes: also called clone S11
[8]
  Kd: 74 nM
LRP6 on HEK293S cells
  IC50, inhibition of Wnt1 signaling (luciferase reporter, HEK293S cells transfected by WNT1): 400 nM

B19: phage-displayed chagasin VEGF variant 2-40-D4 (designed binder)
chain: MADPNRFRGKDLGSLEMSHKVTKAHNGATLTVAVGELVEIQLPSNLQNAGFAWYFEGGTKESPNESMFTVENKYFPLSLYASETGAGGTEHFHVTVKAAGTHAVNLTYMNPNWGPDYWIERFTVYLKANGGSGGSGGS
notes: as for B6
VEGF109 [4]
  EC50 (read off the curve): ~0.003 OD 268 nM

B20: chagasin VEGF binder Variant 66-L2-K (designed binder)
chain: MSHKVTKAHNGATLTVAVGELVEIQLPSNYYKDGFAWYFEGGTKESPNESMFTVENKYFPHYYNLGGRYTGAGGTEHFHVTVKAAGTHAVNLTYMGPWLGPSRVLERFTVYLKAN
VEGF109 [9]
  Kd: 61 nM

B21: chagasin VEGF binder Variant 66-L4-Q (designed binder)
chain: B20 chain with K32Y, Y63Q
VEGF109 [9]
  Kd: 80 nM

B22: chagasin VEGF binder Variant 66-L4-T (designed binder)
chain: B20 chain with K32Y, Y63T, A72G, G73A
VEGF109 [9]
  Kd: 51 nM

B23: chagasin VEGF binder Variant 66-L4-S (designed binder)
chain: B20 chain with K32Y, Y63S, A72G, G73A
VEGF109 [9]
  Kd: 50 nM
